Drawing on PMC10502159 (2023), this text covers Kd for three molecules.

Broadly, the Kd is the constant that tells how readily two partners part at equilibrium.

Where only a bound is given, the exact number is not on record here.

Experiment [1] concerns the target T1, TLR4 1-631 (Homo sapiens, UniProt O00206). Briefly: SPR. For orientation: Surface plasmon resonance follows binding to a sensor surface in real time, without labels.
The target in experiment [2] is RAGE 1-344 (Homo sapiens, UniProt Q15109). Nature of the experiment: SPR.
RAGE 1-344, sequence (Q15109 1-344): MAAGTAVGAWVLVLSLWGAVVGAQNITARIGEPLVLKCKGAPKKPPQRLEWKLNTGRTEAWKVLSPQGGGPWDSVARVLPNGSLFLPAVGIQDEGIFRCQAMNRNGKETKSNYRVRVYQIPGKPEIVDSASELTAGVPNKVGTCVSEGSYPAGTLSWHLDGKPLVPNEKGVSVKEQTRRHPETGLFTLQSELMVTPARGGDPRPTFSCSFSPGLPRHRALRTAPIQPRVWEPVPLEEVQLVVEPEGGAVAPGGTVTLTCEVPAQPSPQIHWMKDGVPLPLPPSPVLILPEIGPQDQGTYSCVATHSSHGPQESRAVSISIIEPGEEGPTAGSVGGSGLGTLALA
For experiment [3], the target named is T1, TLR4 1-631. Briefly: SPR (steady state).

T1 sequence (O00206 1-631): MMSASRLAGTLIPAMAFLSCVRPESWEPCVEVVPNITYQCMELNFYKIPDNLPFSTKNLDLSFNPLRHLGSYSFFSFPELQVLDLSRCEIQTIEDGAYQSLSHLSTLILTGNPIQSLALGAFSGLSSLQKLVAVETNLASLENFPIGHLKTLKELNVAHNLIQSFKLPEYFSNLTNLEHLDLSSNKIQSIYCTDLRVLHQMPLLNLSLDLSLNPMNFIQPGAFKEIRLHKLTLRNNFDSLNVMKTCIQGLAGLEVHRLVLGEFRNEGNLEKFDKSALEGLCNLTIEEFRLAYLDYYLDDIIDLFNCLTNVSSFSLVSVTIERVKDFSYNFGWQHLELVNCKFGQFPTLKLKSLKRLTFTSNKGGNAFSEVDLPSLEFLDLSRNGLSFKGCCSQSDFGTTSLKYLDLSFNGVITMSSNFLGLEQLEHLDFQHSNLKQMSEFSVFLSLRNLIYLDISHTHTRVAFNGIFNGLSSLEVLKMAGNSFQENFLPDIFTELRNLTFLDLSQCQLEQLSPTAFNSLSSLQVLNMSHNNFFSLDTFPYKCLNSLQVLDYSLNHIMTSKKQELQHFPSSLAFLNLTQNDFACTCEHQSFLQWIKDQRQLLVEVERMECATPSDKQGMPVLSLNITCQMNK

B1: procathepsin L (pCTS-L) 17-333 (protein)
chain: ATLTFDHSLEAQWTKWKAMHNRLYGMNEEGWRRAVWEKNMKMIELHNQEYREGKHSFTMAMNAFGDMTSEEFRQVMNGFQNRKPRKGKVFQEPLFYEAPRSVDWREKGYVTPVKNQGQCGSCWAFSATGALEGQMFRKTGRLISLSEQNLVDCSGPQGNEGCNGGLMDYAFQYVQDNGGLDSEESYPYEATEESCKYNPKYSVANDTGFVDIPKQEKALMKAVATVGPISVAIDAGHESFLFYKEGIYFEPDCSSEDMDHGVLVVGYGFESTESDNNKYWLVKNSWGEEWGMGGYVKMAKDRRNHCGIASAASYPTV
modifications: mAb20 pre-exposed
On to B1, for which the Kd in experiment [1] was determined as 1140 nM; in experiment [2], 30.4 nM.

B2: procathepsin L (pCTS-L) 17-333 (protein)
chain: B1 chain
For the molecule B2, in experiment [3], the Kd was below 28.3 nM.

B3: procathepsin L (pCTS-L) 17-333 (protein)
chain: B1 chain
modifications: control c-mAb pre-exposed
Regarding B3, the dissociation constant Kd is 20.3 nM in experiment [1] and 3.1 nM in experiment [2].
